How the values were obtained:
insulin = target: T1, insulin (Homo sapiens, UniProt P01308); test: Kinetic analysis using surface plasmon resonance (Biacore T200), immobilized insulin; assay type: binding; conditions: MGSSHHHHHHGSS-[Y#####]-A
T1 construct: purchased Roche 1376497
Method: Kinetic constants (ka and kd) and affinities (KD) were determined for His6-tagged Y variants using a Biacore T200 instrument (GE Healthcare). Target proteins C4, IL-6 and insulin, respectively, were immobilized in separate flow cells on the carboxylated dextran layer of different CM5 chip surfaces (GE Healthcare). Immobilization was performed using amine coupling chemistry according to the manufacturer's protocol and PBS pH 7.4 supplemented with 0.1 Tween20 (PBST 0.1%) as running buffer. The ligand immobilization levels on the surfaces were 3280-8830 RU for C4, 495-1184 RU for IL-6, and 270-282 RU for insulin. One flow cell surface on each chip was activated and deactivated for use as blank during analyte injections. In the kinetic experiment, PBST 0.1% was used as running buffer at a flow rate of 30 μl/min. The analytes, i.e. Y variants, were each diluted in PBST 0.1 buffer at concentrations of 1000, 500, 100, 50 and 10 nM and injected for 5 min, followed by dissociation in running buffer for 3 min. After dissociation, the surfaces were regenerated with one injection of 30 μl 10 mM HCl. Kinetic constants were calculated from the sensorgrams using the Langmuir 1:1 model of Biacore T200 Evaluation software 2.0 (GE Healthcare).
(§1) Produced Y variants were subjected to CD and SPR analyses according to the methods described in Example 1.
(§2) The Y variants were cloned, produced and characterized according to the general methods described in Example 1. Produced Y variants with point mutations and/or N-terminal or C-terminal extensions were subjected to CD and SPR analyses as described in Example 1.
(§3) Produced Y variants were subjected to CD and SPR analyses according to the methods described in Example 1. In addition, CD spectra of selected IL-6 binding variants were also recorded at 60, 70, 80 and 90° C.
(§4) The Y variants were cloned, produced and characterized according to the general methods described in Example 1. Produced Y variants with point mutations were subjected to CD and SPR analyses as described in Example 1. In addition, CD spectra of the IL-6 binding variants were also recorded at 60, 70, 80 and 90° C.

[1] = Fraction of soluble product on expression in E. coli, estimated from SDS-PAGE; assay type: physicochemical; conditions: MGSSHHHHHHGSS-[Y#####]-A; for Estimated soluble fraction: Table 7, Ylib002Naive.I selection; for Est soluble fraction: Table 9, mutation study 5
Method: E. coli T7E2 cells were transformed with plasmids containing the gene fragment of each respective Y variant. The resulting recombinant strains were generally cultivated in media supplemented with 50 μg/ml kanamycin at 30-37° C. in 50 ml scale using the EnPresso protocol (Enpresso GmbH). In order to induce protein expression, isopropyl-β-D-1-thiogalactopyranoside (IPTG) was added to a final concentration of 0.5 mM at an optical density at 600 nm (OD600) of approximately 10. After induction, the cultures were incubated for 16 h. The cells were harvested by centrifugation. Alternatively, the culture was performed at 37° C. in 980 ml of TSB-YE medium (tryptic soy broth 30 g/l supplemented with yeast extract 5 g/l) supplemented with 50 μg/ml kanamycin, and protein expression induced with 0.2 mM IPTG at OD600=2, followed by incubation for 5 h before harvesting of the cells by centrifugation. The total yield as well as the fraction of soluble and insoluble product of the respective Y variant was estimated based on SDS-PAGE analysis.

[2] = Circular dichroism spectroscopy analysis (CD spectra, variable temperature measurement, refolding); assay type: physicochemical; conditions: MGSSHHHHHHGSS-[Y#####]-A
Method: The respective Y variant was diluted to 0.5 mg/ml in PBS. A CD spectrum at 250-195 nm was obtained at 20° C. In addition, a variable temperature measurement (VTM) was performed to determine the melting temperature (Tm). In the VTM, absorbance was measured at 221 nm while the temperature was raised from 20° C. to 90° C. with a temperature gradient of 5° C./min. A new CD spectrum was obtained at 20° C. after the heating procedure, in order to study the refolding ability of the Y variants. The CD measurements were performed on a Jasco J-810 spectropolarimeter (Jasco Scandinavia AB) using a cell with an optical path length of 1 mm.
as §1, §2, §3, §4

T1 sequence (P01308 25-54 limits assumed): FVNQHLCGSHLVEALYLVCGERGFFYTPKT
T1 sequence (P01308 90-110 limits assumed): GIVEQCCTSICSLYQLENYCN

Row | Substance | Kd (insulin; Table 7) | ka (insulin; Table 7) | kd (insulin; Table 7) | Estimated soluble fraction [1] | Tm ([2]; Table 7) | Est soluble fraction [1] | Tm ([2]; Table 9, mutation study 5) | Kd (insulin; Table 9, mutation study 5) | ka (insulin; Table 9, mutation study 5) | kd (insulin; Table 9, mutation study 5)
1 | Y00299: insulin binding Y variant from Ylib002Naive.I, SEQ ID NO:132 (LAEAKEAAIAELDSKGVGAYQIKFIQVAKTVEQVQILKQAILADLPA; Engineered insulin binding Y variant) | 0.0065 µM | 310000 M⁻¹ s⁻¹ | 0.002 s⁻¹ | 75% | 56 °C |  |  |  |  | 
2 | Y00301: insulin binding Y variant from Ylib002Naive.I, SEQ ID NO:133 (LAEAKEAAIAELDSKGVGARQIKWIQQAKSVEVVQWLKQAILADLPA; Engineered insulin binding Y variant) | 0.00094 µM | 2.9e+07 M⁻¹ s⁻¹ | 0.056 s⁻¹ | 83% | 62 °C |  |  |  |  | 
3 | Y00304: insulin binding Y variant from Ylib002Naive.I, SEQ ID NO:134 (LAEAKEAAIAELDSKGVGAYQIKFIQVAHDVEEVQILKQAILADLPA; Engineered insulin binding Y variant) | 0.021 µM | 85000 M⁻¹ s⁻¹ | 0.0011 s⁻¹ | 33% | 41 °C |  |  |  |  | 
4 | Y00310: insulin binding Y variant from Ylib002Naive.I, SEQ ID NO:135 (LAEAKEAAIAELDSKGVGAYQIKFIQIAHTVEEVQLMKQAILADLPA; Engineered insulin binding Y variant) | 0.037 µM | 170000 M⁻¹ s⁻¹ | 0.0063 s⁻¹ | 86% | 54 °C |  |  |  |  | 
5 | Y00330: insulin binding Y variant from Ylib002Naive.I, SEQ ID NO:136 (LAEAKEAAIAELDSKGVGAKYIKMIQMAKHVETVQYMKQAILASLPA; Engineered insulin binding Y variant) | 0.12 µM | 30000 M⁻¹ s⁻¹ | 0.0037 s⁻¹ | 67% | 56 °C |  |  |  |  | 
6 | Y00345: insulin binding Y variant from Ylib002Naive.I, SEQ ID NO:138 (LAEAKEAAIAELDSKGVGAYQIKFIQVAKTVEAVQAIKQAILADLPA; Engineered insulin binding Y variant) | 0.061 µM | 290000 M⁻¹ s⁻¹ | 0.017 s⁻¹ | 80% | 53 °C |  |  |  |  | 
7 | Y00356a: insulin binding Y variant from Ylib002Naive.I, SEQ ID NO:141 (LAEAKEAAIAELDSKGVGAKYIKMIQHAHYVEVVQWLKQAILAHLPA; Engineered insulin binding Y variant) | 0.00017 µM | 3.4e+07 M⁻¹ s⁻¹ | 0.0061 s⁻¹ | 60% | 56 °C |  |  |  |  | 
8 | Y00358: insulin binding Y variant from Ylib002Naive.I, SEQ ID NO:142 (LAEAKEAAIAELDSKGVGAAKIKWIQDAKSVETVQFLKQAILAELPA; Engineered insulin binding Y variant) | 0.01 µM | 220000 M⁻¹ s⁻¹ | 0.0023 s⁻¹ | 97% | 61 °C |  |  |  |  | 
9 | Y00361: insulin binding Y variant from Ylib002Naive.I, SEQ ID NO:144 (LAEAKEAAIAELDSKGVGAKFIKMIQSAKLVETVQLLKQAILADLPA; Engineered insulin binding Y variant) | 0.31 µM | 12000 M⁻¹ s⁻¹ | 0.0036 s⁻¹ | 100% | 52 °C |  |  |  |  | 
10 | Y02688: C4 binding Y variant, Y02330 with I9L, SEQ ID NO:43 (LAEAKEAALAELDSKGVGAELIKKIQHAESVEGVQFWKQEILAYLPA; Engineered C4 binding Y variant) |  |  |  |  |  | 100% | 50 °C |  |  | 
11 | Y02689: C4 binding Y variant, Y02330 with K15Y, SEQ ID NO:44 (LAEAKEAAIAELDSYGVGAELIKKIQHAESVEGVQFWKQEILAYLPA; Engineered C4 binding Y variant) |  |  |  |  |  | 100% | 53 °C |  |  | 
12 | Y02690: C4 binding Y variant, Y02330 with Q26E, SEQ ID NO:45 (LAEAKEAAIAELDSKGVGAELIKKIEHAESVEGVQFWKQEILAYLPA; Engineered C4 binding Y variant) |  |  |  |  |  | 100% | 53 °C |  |  | 
13 | Y02691: C4 binding Y variant, Y00792 with K15Y Q26E, SEQ ID NO:46 (LAEAKEAAIAELDSYGVGADLIKKIEQASSVEGVQFWKQEILAQLPA; Engineered C4 binding Y variant) |  |  |  |  |  | 100% | 58 °C |  |  | 
14 | Y02692: C4 binding Y variant, Y02309 with K15Y Q26E, SEQ ID NO:47 (LAEAKEAAIAELDSYGVGADLIKKIEKAESVEGVQFWKQEILATLPA; Engineered C4 binding Y variant) |  |  |  |  |  | 100% | 57 °C |  |  | 
15 | Y02693: C4 binding Y variant, Y02330 with K15Y Q26E, SEQ ID NO:48 (LAEAKEAAIAELDSYGVGAELIKKIEHAESVEGVQFWKQEILAYLPA; Engineered C4 binding Y variant) |  |  |  |  |  | 100% | 52 °C |  |  | 
16 | Y02709: insulin binding Y variant, Y00358 with I9L, SEQ ID NO:149 (LAEAKEAALAELDSKGVGAAKIKWIQDAKSVETVQFLKQAILAELPA; Engineered insulin binding Y variant) |  |  |  |  |  | 100% | 54 °C | 0.38 µM | 27000 M⁻¹ s⁻¹ | 0.01 s⁻¹
17 | Y02710: insulin binding Y variant, Y00358 with K15Y, SEQ ID NO:150 (LAEAKEAAIAELDSYGVGAAKIKWIQDAKSVETVQFLKQAILAELPA; Engineered insulin binding Y variant) |  |  |  |  |  | 100% | 61 °C | 0.014 µM | 190000 M⁻¹ s⁻¹ | 0.0027 s⁻¹
18 | Y02711: insulin binding Y variant, Y00358 with Q26E, SEQ ID NO:151 (LAEAKEAAIAELDSKGVGAAKIKWIEDAKSVETVQFLKQAILAELPA; Engineered insulin binding Y variant) |  |  |  |  |  | 100% | 62 °C | 0.054 µM | 1500 M⁻¹ s⁻¹ | 0.008 s⁻¹
19 | Y02713: insulin binding Y variant, Y00310 with K15Y, SEQ ID NO:153 (LAEAKEAAIAELDSYGVGAYQIKFIQIAHTVEEVQLMKQAILADLPA; Engineered insulin binding Y variant) |  |  |  |  |  | 100% | 51 °C | 0.19 µM | 110000 M⁻¹ s⁻¹ | 0.014 s⁻¹
20 | Y02714: insulin binding Y variant, Y00310 with Q26E, SEQ ID NO:154 (LAEAKEAAIAELDSKGVGAYQIKFIEIAHTVEEVQLMKQAILADLPA; Engineered insulin binding Y variant) |  |  |  |  |  | 100% | 53 °C | 0.54 µM | 290000 M⁻¹ s⁻¹ | 0.16 s⁻¹

Reference: patent publication US11505576B2, “Polypeptides based on a scaffold” (AFFIBODY AB, priority 2018, dated 2022)
